Reference: patent publication US8999894 (ALBERT EINSTEIN COLLEGE OF MEDICINE OF YESHIVA UNIVERSITY, dated 2015)

Legend:
[1] = biological target: T1, recombinant E. coli DNA gyrase (E. coli, UniProt P0AES4 2-875; P0AES6 2-804); assay: SPR (BIAcore 3000), MfpA amine-coupled to CM5 chip, E. coli DNA gyrase as analyte, 1:1 Langmuir fit
[2] = biological target: T1, recombinant E. coli DNA gyrase; assay: cell-based or functional assay

T1 sequence (P0AES4 2-875 limits assumed, one chain of several): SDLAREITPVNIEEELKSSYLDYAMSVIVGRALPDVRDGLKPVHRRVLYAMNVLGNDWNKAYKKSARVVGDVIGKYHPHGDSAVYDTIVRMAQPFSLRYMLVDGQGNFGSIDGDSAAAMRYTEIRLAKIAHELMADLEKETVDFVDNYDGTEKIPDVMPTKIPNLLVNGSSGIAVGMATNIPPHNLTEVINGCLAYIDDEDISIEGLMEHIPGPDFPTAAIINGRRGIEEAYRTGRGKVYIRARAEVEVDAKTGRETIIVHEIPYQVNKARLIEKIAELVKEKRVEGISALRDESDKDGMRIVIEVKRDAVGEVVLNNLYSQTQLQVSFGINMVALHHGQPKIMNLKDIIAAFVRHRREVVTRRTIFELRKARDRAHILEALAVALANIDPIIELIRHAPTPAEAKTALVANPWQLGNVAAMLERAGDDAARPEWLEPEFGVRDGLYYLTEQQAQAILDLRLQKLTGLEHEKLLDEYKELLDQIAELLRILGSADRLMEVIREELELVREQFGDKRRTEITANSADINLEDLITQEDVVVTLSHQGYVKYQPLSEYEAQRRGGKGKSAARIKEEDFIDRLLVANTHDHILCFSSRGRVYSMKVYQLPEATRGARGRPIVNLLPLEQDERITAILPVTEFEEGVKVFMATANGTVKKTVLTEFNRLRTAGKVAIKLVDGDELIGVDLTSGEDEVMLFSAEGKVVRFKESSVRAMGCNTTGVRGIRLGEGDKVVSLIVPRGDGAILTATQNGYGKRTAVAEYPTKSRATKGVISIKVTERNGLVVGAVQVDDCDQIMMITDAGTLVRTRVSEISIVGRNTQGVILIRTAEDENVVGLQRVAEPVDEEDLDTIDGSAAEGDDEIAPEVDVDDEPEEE

B1: Mycobacterium tuberculosis MfpA pentapeptide repeat protein (Rv3361c gene product) (other)
chain: QQWVDCEFTGRDFRDEDLSRLHTERAMFSECDFSGVNLAESQHRGSAFRNCTFERTTLWHSTFAQCSMLGSVFVACRLRPLTLDDVDFTLAVLGGNDLRGLNLTGCRLRETSLVDTDLRKCVLRGADLSGARTTGARLDDADLRGATVDPVLWRTASLVGARVDVDQAVAFAAAHGLCLA
notes: also called MtMfpA
With B1 the Kd [1] was 0.46 µM, the koff [1] was roughly 0.0001 s⁻¹ and the “inhibition of ATP-dependent DNA supercoiling by E. coli DNA gyrase, apparent IC50” value [2] was roughly 1.2 µM. For the same binder, the “inhibition of ATP-independent relaxation by E. coli DNA gyrase, apparent IC50” value [2] was roughly 1.2 µM.
